Patent publication US11866736B2, “Protein prostheses for mitochondrial diseases or conditions” (The General Hospital Corporation, priority 2015, dated 2024)

Experiment: Enzymatic assay of NAD(P)H oxidase activity, NADH as substrate (absorbance at 340)
Assay type: biochemical
Method: FIGS. 1A-1E illustrate the biochemical properties of LbNOX with a C-terminal FLAG tag and a cleavable N-terminal hexahistidine (Hisx6) tag produced by overexpression in E. coli. Purified LbNOX-FLAG has a yellow color and a UV-visible absorption spectrum (λmax=371 and 444 nm) similar to other FAD-containing enzymes, which can be reduced upon the addition of sodium dithionite (FIG. 1B). (FIG. 1A) Reaction catalyzed by LbNOX. (FIG. 1B) UV-visible spectrum of purified LbNOX. Protein (82.8 μM FAD active sites) in 50 mM NaPi pH 7.5, 150 mM NaCl after purification in oxidized form (solid line) and after addition of excess of sodium dithionite, reduced form (dashed line). Inset: SDS-PAGE of purified LbNOX. (FIG. 1C) Simultaneous measurement of NADH and oxygen consumption by LbNOX as assayed in 50 mM NaPi pH 7.5, 150 mM NaCl at 28° C. NADH (500 μM) and LbNOX (1.8 μg) were added as indicated by arrows. (FIG. 1D) Michaelis-Menten analysis of the NAD(P)H oxidase activity of recombinant LbNOX. Inset: values for Vmax and KM for NADH represent the mean±S.D. (error bars) from four independent experiments. (FIG. 1E) The crystal structure of LbNOX. The FAD in stick representation and bound oxygen in red spheres. Inset: The substrate selectivity loops of LbNOX (containing Asp177, Ala178, and Pro184) and glutathione reductase—NADPH complex (containing Arg198 and Arg204) (PDB ID 1GET). Backbone atoms of NAD(P)H binding domains of each protein (residues 147-247 of LbNOX and 167-268 of glutathione reductase) were superimposed using the least square algorithm of COOT. Note that Arg198 and Arg204 of glutathione reductase, which tightly bind the phosphate moiety of NADPH, are replaced in LbNOX with Ala178 and Pro184, respectively. Negatively charged side chain of Asp177 in LbNOX replaces the neutral Val197 of glutathione reductase.
Recombinant LbNOX activity was monitored by following the decrease of the absorbance of NAD(P)H at […] using CARY® 100 spectrophotometer (Agilent, CA). A typical reaction mixture contained 2 μM FAD in 0.5 ml of the assay buffer (50 mM Na2HPO4, pH 7.5, 150 mM NaCl) and was incubated for 4 min at 37° C. before NAD(P)H (2-600 μM) and enzyme (0.08-6.8 μg) were added. Extinction coefficient (ε340=6.2 mM^−1 cm^−1) was used to calculate NAD(P)H oxidase activity. Simultaneous monitoring of oxygen consumption and NADH fluorescence was performed using a custom-built fluorimeter. In our setup the REDEYE™ oxygen patch (OceanOptics) was installed in a cuvette and the optical probe was connected to a fluorimeter. Oxygen causes quenching of the REDEYE™ patch fluorescence which allows to monitor the partial pressure of oxygen. In our experiments 0.5 ml of the assay buffer was preincubated at 28° C. before NADH (40-1500 μM) and LbNOX (0.1-2 μg) were added.

Molecule	substrate selectivity NADH vs NADPH	specific activity (after enterokinase cleavage of N-terminal Hisx6 tag)	specific activity (fully reconstituted LbNOX (holoLbNOX), peak from Source 15Q, N-terminal Hisx6 tag present)	Km (recombinant enzyme, read-out: apparent KM for NADH)	kcat with NADH
LbNOX: water-forming NADH oxidase endogenous to Lactobacillus brevis; tested with C-terminal FLAG tag (protein, listed as Lactobacillus brevis, C-terminal FLAG tag) KVTVVGCTHAGTFAIKQILAEHPDAEVTVYERNDVISFLSCGIALYLGGKVADPQGLFYSSPEELQKLGANVQMNHNVLAIDPDQKTVTVEDLTNHAQTTESYDKLVMTSGSWPIVPKIPGIDSDRVKLCKNWAHAQALIEDAKEAKRITVIGAGYIGAELAEAYSTTGHDVTLIDAMARVMPKYFDADFTDVIEQDYRDHGVQLALGETVESFTDSATGLTIKTDKNSYETDLAILCIGFRPNTDLLKGKVDMAPNGAIITDDYMRSSNPDIFAAGDSAAVHYNPTHQNAYIPLATNAVRQGILVGKNLVKPTVKYMGTQSSSGLALYDRTIVSTGLTLAAAKQQGLNAEQVIVEDNYRPEFMPSTEPVLMSLVFDPDTHRILGGALMSKYDVSQSANTLSVCIQNENTIDDLAMVDMLFQPNFDRPFNYLNILAQAAQAKVAQSVNA	selectively oxidizes NADH over NADPH	~750 µmol/min/mg	~550 µmol/min/mg	69 ± 3 µM	
TPNOX: NADPH-specific quintuple mutant (G159A/D177A/A178R/M179S/P184R) of LbNOX (protein) KVTVVGCTHAGTFAIKQILAEHPDAEVTVYERNDVISFLSCGIALYLGGKVADPQGLFYSSPEELQKLGANVQMNHNVLAIDPDQKTVTVEDLTNHAQTTESYDKLVMTSGSWPIVPKIPGIDSDRVKLCKNWAHAQALIEDAKEAKRITVIGAGYIAAELAEAYSTTGHDVTLIARSARVMRKYFDADFTDVIEQDYRDHGVQLALGETVESFTDSATGLTIKTDKNSYETDLAILCIGFRPNTDLLKGKVDMAPNGAIITDDYMRSSNPDIFAAGDSAAVHYNPTHQNAYIPLATNAVRQGILVGKNLVKPTVKYMGTQSSSGLALYDRTIVSTGLTLAAAKQQGLNAEQVIVEDNYRPEFMPSTEPVLMSLVFDPDTHRILGGALMSKYDVSQSANTLSVCIQNENTIDDLAMVDMLFQPNFDRPFNYLNILAQAAQAKVAQSVNA					3.2 ± 0.2 s⁻¹
